Laboratory results from patent US20140017790A1, “CONTROL AGENT FOR CONTROLLING UNDIFFERENTIATED STATE AND USE THEREOF” (RIKEN, priority 2011, published 2014).

Tests used:
Assay type in all cases: cell-based
[1] = test system: STAT3; experiment: Western blotting, phosphorylation of STAT3 in human iPS cells; settings: feeder conditions, 6 days, negative control (bFGF) = 1
Method: The human iPS cells were cultured under feeder conditions in the same manner as in Example 8, and the feeder cells were removed 6 days after the start of the culture. Then, in the same manner as in Example 3, the cultured human iPS cells were washed, suspended, homogenized, and centrifuged to collect the supernatant as a cell extract. Thereafter, a target protein was detected by Western blotting in the same manner as in Example 3, except that the above supernatant was used. Furthermore, as a negative control, the target protein was detected by carrying out the same procedures except that bFGF was added instead of the CCL2.
Then, the ratio of the phosphorylated STAT3 to the non-phosphorylated STAT3 (pSTAT3/STAT3) was determined. Assuming that the value of pSTAT3/STAT3 in the negative control was “1”, the relative value was calculated.

[2] = test system: human iPS cells; experiment: phase-contrast morphology of human iPS cells with JAK or PI3K inhibitor; settings: inhibitor not added (DMSO added), 6 days; bFGF(+)/CCL2(-) or bFGF(-)/CCL2(+)
Method: As a JAK inhibitor, a JAK inhibitor I (Merck) was used. As PI3K inhibitor, the same LY294002 as used in Example 4 was used. Human iPS cells were cultured for 6 days under feeder conditions in the same manner as in the above item (1), except that not only the CCL2 but also the JAK inhibitor or the PI3K inhibitor further was added to the medium. In the medium, the concentration of the Jak inhibitor was set to 10 ng/ml, and the concentration of the PI3K inhibitor was set to 5 ng/ml.
Furthermore, as a control, the cells were cultured in the same manner as in the above using the following media, respectively: a medium containing bFGF instead of the CCL2 and containing DMSO (5 ng/ml) instead of the inhibitor; and a medium containing bFGF (5 ng/ml) instead of the CCL2 and containing the inhibitor.
The phase-contrast micrographs show the results obtained under the conditions of, from the above: the inhibitor not added (DMSO added); the JAK inhibitor added; and the PI3K inhibitor added.

[3] = test system: mouse ES cells; experiment: quantitative RT-PCR of undifferentiated marker genes in mouse ES cells; settings: LIF 1000 units/ml, CCL2 500 ng/ml
Method: A PrimeScript RT-PCR Kit (trade name, TAKARA BIO INC.), an ABI 7500 Fast real time PCR system (trade name, Applied BioSystems), and a SYBR (registered trademark) Premix Ex Taq (trade name, TAKARA BIO INC.) were used in accordance with their protocols. PCR was carried out by conducting 40 cycles of treatment with a treatment at 94° C. for 5 second and at 62.5° C. for 20 seconds as 1 cycle. The expression level of each gene was calculated by normalizing the relative amount of mRNA in the gene to Gapdh mRNA according to the 2^−ΔΔ^CT method (Thomse R, Solvsten C A, Linnet T E, et al., Analysis of qPCR data by converting exponentially related Ct values into linearly related XO values. J Bioinform Comput Biol 2010: 8: 885-900.).
[…] Furthermore, as a negative control, the expression levels of the undifferentiated marker genes were determined in the same manner regarding the mouse ES […] Then, the fold changes in the expression level relative to the negative control were calculated.
FIG. […] The vertical axis indicates the fold change (-fold), and the horizontal axis indicates the examined undifferentiated marker genes. […] In the former case (open bar), the concentration of the LIF in the medium was 1000 units/ml and the concentration of the CCL2 in the medium was 500 ng/ml. […]

[4] = test system: human iPS cells; experiment: cell adhesion and growth, number of human iPS cells over time; settings: bFGF(-)/CCL2(+) versus bFGF(+)/CCL2(-)
Method: Human iPS cells were cultured under feeder conditions in the same manner as in Example 8, and the number of cells was measured every 48 hours. As a negative control, the same procedures were carried out except that bFGF was added instead of the CCL2. FIG. 17 is a graph showing the change with time in the number of the human iPS cells. The vertical axis indicates the number of cells (10^4 cells/ml), and the horizontal axis indicates the culture time (hr). CCL2(+) indicates the results obtained under the conditions of bFGF(−)/CCL2(+), and CCL2(−) indicates the results obtained under the conditions of bFGF(+)/CCL2(−).

[5] = test system: AKT; experiment: Western blotting, phosphorylation of AKT in mouse iPS cells; settings: CCL2 overexpressed, relative to negative control
Method: The mouse iPS cells transfected with the Ccl2 expression vector were cultured for 24 hours in the same manner as in Example 1. After the culture, the mouse iPS cells were washed with PBS, and then were suspended in 100 μl of a mammalian m-PER lysis buffer. The suspension was passed through a 26-gauge needle for 10 minutes to homogenize the cells. Then, the suspension was centrifuged at 13,000 rpm and 4° C. for 5 minutes, and the supernatant was collected. The protein concentration in the supernatant was measured using a Pierce (registered trademark) BCA Protein assay (trade name, Thermo Scientific). Next, the supernatant was subjected to Western blotting to detect a target protein. Specifically, first, the supernatant (total protein: 10 μg) was applied to a Novex Gel electrophoresis system with 4%-12% Bis-Tris gels, and was blotted on a nitrocellulose membrane. Then, the membrane was incubated with a primary antibody against the target protein. After washing the membrane, the membrane was incubated with a labeled secondary antibody labeled with horseradish peroxidase, and a color-developing reaction was caused using a coloring reagent (trade name: ECL plus, GE Healthcare). Then, luminescence on the membrane was detected using a Fuji LAS-3000 luminescent image analyzer. […]

B1: CCL2: mouse recombinant CCL2 (MCP-1, #479-JE-010, R&D Systems); in Examples 1, 3, 4(1), 5 mouse CCL2 (SEQ ID NO: 3) overexpressed from Ccl2 expression vector (protein, listed as Mus musculus)
chain: MQVPVMLLGLLFTVAGWSIHVLAQPDAVNAPLTCCYSFTSKMIPMSRLESYKRITSSRCPKEAVVFVTKLKREVCADPKKEWVQTYIKNLDRNQMRSEPTTLFKTASALRSSAPLNVKLTRKSEANASTTFSTTTSSTSVGVTSVTVN
ratio of phosphorylated STAT3 to non-phosphorylated STAT3 (pSTAT3/STAT3), relative value [1]: about 7.5 fold
undifferentiation potency, cell morphology [2]: little differentiated cells
expression of the Klf4 gene, fold change relative to negative control [3]: increased markedly
expression of the Tbx3 gene, fold change relative to negative control [3]: increased markedly
number of the cells ([4]; as of 48 hours): greater
growth potential ([4]; as of 144 hours (6th day)): improved further
phosphorylation of AKT (pAKT/AKT) [5]: not promoted
